The target of test [1] is T1, Activin A (human, UniProt P08476 311-426).
T1 sequence: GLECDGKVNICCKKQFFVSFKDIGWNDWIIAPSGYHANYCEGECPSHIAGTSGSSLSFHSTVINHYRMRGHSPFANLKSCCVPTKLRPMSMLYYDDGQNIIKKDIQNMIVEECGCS
Briefly: cell-based or functional assay.

In test [2] the target is T2, Activin AB (human, UniProt P08476 311-426; P09529 293-407).
T2 chain 1: T1 sequence
T2 chain 2: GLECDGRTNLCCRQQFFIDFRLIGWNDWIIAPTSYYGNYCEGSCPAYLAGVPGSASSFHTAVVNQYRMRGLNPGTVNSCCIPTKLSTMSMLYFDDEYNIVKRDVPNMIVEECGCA
Briefly: cell-based or functional assay.

Test [3] addresses T3, Activin AC (human, UniProt P55103 237-352).
T3 sequence 1: T1 sequence
T3 sequence 2: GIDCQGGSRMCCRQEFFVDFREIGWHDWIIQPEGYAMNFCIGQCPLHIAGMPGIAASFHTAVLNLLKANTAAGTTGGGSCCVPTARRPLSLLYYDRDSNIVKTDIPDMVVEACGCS
In words: cell-based or functional assay.

The target in test [4] is T2, Activin AB. Briefly: SPR (Biacore), mAb captured on anti-Fc, Activin AB injected, 25 C. As to the method: (§1) Antibody-antigen association was monitored for 240 seconds while dissociation in buffer was monitored for 600 seconds. Kinetic association and dissociation rate constants were determined by processing and fitting the data using Scrubber software version 2.0c. Binding equilibrium dissociation constants (KD) and dissociative half-lives (t_{1/2}) were then calculated from the kinetic rate constants as: KD (M)=kd/kₐ and t_{1/2} (min)=[ln 2/(60*kd)]. (NB=no binding observed under the conditions used; NT=not tested).
(In general: In SPR one partner is held on a chip, and binding of the other changes the refractive index at the surface.)

In test [5] the target is T2, Activin AB. In words: SPR (Biacore), mAb captured on anti-Fc, Activin AB injected, 37 C. As to the method: as §1
Test [6] concerns the target T3, Activin AC. In words: SPR (Biacore), mAb captured on anti-Fc, Activin AC injected, 25 C. As to the method:
as §1

In test [7] the target is T3, Activin AC. In words: SPR (Biacore), mAb captured on anti-Fc, Activin AC injected, 37 C. As to the method:
as §1

For test [8], the target named is T4, Activin A (human, UniProt P08476 311-426).
T4 construct: Homodimer of two βA subunits; bought from R&D Systems (#338-AC); also called inhibin-βA dimer; human Activin A
T4 sequence: T1 sequence
Briefly: SPR, captured mAb, 25C. As to the method:
as §1

For test [9], the target named is T4, Activin A. In words: SPR, captured mAb, 37C. As to the method: as §1
Test [10] deals with T4, Activin A. In words: SPR, captured mAb, 25C; no dissociation observed, kd fixed. As to the method: as §1
Test [11] deals with T4, Activin A. In words: SPR, captured mAb, 37C; no dissociation observed, kd fixed. As to the method:
as §1

Numbering of substitutions follows the chain as printed.

B1: H4H10468P2 (antibody, human IgG4, V domains shown)
VH: QVQLQESGPGLVKPSETLSLTCTVSGGSFSSHFWSWIRQPPGKGLEWIGYIYYSGGTHYNPSLESRVTISVDTSKNQFSLKLNSVTAADTAVYYCARARSGITFGGLIVPGSFDIWGQGTMVTVSS
VL: not shown
On to B1, for which, in test [1], the “IC50 [M], inhibition of 100 pM Activin A in A204/CAGAx12-Luc Smad2/3-luciferase bioassay” value was found to be 3.9e-11 M. Also, the “IC50 [M], inhibition of 30 pM Activin AB in A204/CAGAx12-Luc Smad2/3-luciferase bioassay” value in test [2] is 2.3e-09 M. Besides, in [3], the “IC50 [M], inhibition of 4 nM Activin AC in A204/CAGAx12-Luc Smad2/3-luciferase bioassay” value was 3.4e-09 M. In [4], the “50 nM Ag Bound (RU)” value was found to be 34.7 RU; the Kd (commonly the constant that tells how readily two partners part at equilibrium) turned out to be 0.556 nM; the koff (as a rule, the first-order rate constant of dissociation) was found to be 0.00209 s⁻¹; the kon (usually the second-order rate constant of association) was 3.76e+06 M⁻¹ s⁻¹. In test [4], this molecule gave a t1/2 of 5.5 min. Further, in test [5], the “50 nM Ag Bound (RU)” value is 34.5 RU, binding was put at a Kd of 0.88 nM, the koff was 0.00443 s⁻¹ and the association rate constant (kon) was 5.03e+06 M⁻¹ s⁻¹. The molecule further yielded a t1/2 in test [5] of 2.6 min. For the same molecule, in test [6], the “50 nM Ag Bound (RU)” value came to 17.2 RU, binding was characterised by a dissociation constant (Kd) of 7.41 nM, the off-rate (koff) worked out at 0.00592 s⁻¹ and the kon worked out at 798000 M⁻¹ s⁻¹. For the same molecule, the t1/2 in test [6] worked out at 2 min. For the same molecule, in [7], the “50 nM Ag Bound (RU)” value was found to be 10.7 RU, the Kd was 17.3 nM, the koff is 0.0124 s⁻¹ and the on-rate (kon) came out at 719000 M⁻¹ s⁻¹. Besides, the t1/2 in test [7] was 0.9 min.

B2: H4H10432P2 (antibody, human IgG4, V domains shown)
VH: EVQLVESGGGLVQPGRSLTLSCAVSGFTFDDHAMHWVRQAPGKGLEWVSGISWNSVSIGYADSVKGRFTISRDNAKTSLYLQMNSLRVDDTALYYCVQDLNDILTGYPLFDFWGQGTLVTVSS
VL: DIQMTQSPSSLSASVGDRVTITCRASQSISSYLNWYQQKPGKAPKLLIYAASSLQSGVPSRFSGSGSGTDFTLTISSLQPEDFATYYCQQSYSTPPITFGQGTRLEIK
For B2, the “IC50 [M], inhibition of 100 pM Activin A in A204/CAGAx12-Luc Smad2/3-luciferase bioassay” value in [1] amounted to 1.1e-10 M. Also, the “IC50 [M], inhibition of 30 pM Activin AB in A204/CAGAx12-Luc Smad2/3-luciferase bioassay” value in test [2] was found to be 8e-10 M. Moreover, in test [3], the “IC50 [M], inhibition of 4 nM Activin AC in A204/CAGAx12-Luc Smad2/3-luciferase bioassay” value is 2.8e-09 M. In test [4], the “50 nM Ag Bound (RU)” value came out at 38.3 RU, the Kd worked out at 0.568 nM, the koff amounted to 0.00227 s⁻¹ and the kon stood at 4e+06 M⁻¹ s⁻¹. Further, the t1/2 in test [4] came out at 5.1 min. Besides, in test [5], the “50 nM Ag Bound (RU)” value turned out to be 44.4 RU, the Kd is 1.1 nM, the koff amounted to 0.00592 s⁻¹ and the kon was determined as 5.4e+06 M⁻¹ s⁻¹. Also, the t1/2 in [5] was 2 min. In [6], the “50 nM Ag Bound (RU)” value turned out to be 34.9 RU, binding was characterised by a dissociation constant (Kd) of 2.98 nM, the koff worked out at 0.00187 s⁻¹ and the kon came out at 629000 M⁻¹ s⁻¹. The molecule further yielded a t1/2 in [6] of 6.2 min. For the same molecule, in test [7], the “50 nM Ag Bound (RU)” value stood at 34.6 RU; the affinity, expressed as Kd, was 12.5 nM; the koff was 0.00902 s⁻¹; the kon worked out at 722000 M⁻¹ s⁻¹. The molecule also gave a t1/2 in test [7] of 1.3 min.

B3: H4H10445P2 (antibody, human IgG4, V domains shown)
VH: QVQLQESGPGLVKPSETLSLICSVSGGSFSSHFWSWIRQPPGKGLEWIGYVLYSGGTNYNPSLKSRVTISVDTSKNQFFLKLSSVTAADTADYYCARAISGITFGGIIVPGSFDIWGQGTMVTVSS
VL: not shown
With B3, in test [8], the “Activin A-20 nM (RU)” value worked out at 43 RU, the Kd was not above 0.0208 nM, the kon stood at 2.4e+06 M⁻¹ s⁻¹ and the t1/2 is not below 231 min. Further, in test [9], the “Activin A-20 nM (RU)” value came to 36 RU, the Kd is not above 0.0115 nM, the kon was found to be 4.33e+06 M⁻¹ s⁻¹ and the t1/2 is not below 231 min. The same molecule showed a koff in [10] not above 5e-05 s⁻¹. This molecule also showed a koff in [11] not above 5e-05 s⁻¹.

B4: H4H10447P2 (antibody, human IgG4, V domains shown)
VH: B3 VH with I21T, V51I, L52H, F79S, S83T, I107M, I115V, Q118E
VL: not shown
As for B4, in test [8], the “Activin A-20 nM (RU)” value came out at 43 RU, the Kd was not above 0.0212 nM, the kon was found to be 2.36e+06 M⁻¹ s⁻¹ and the t1/2 is not below 231 min. In test [9], the “Activin A-20 nM (RU)” value stood at 36 RU, the Kd was not above 0.0107 nM, the kon came out at 4.69e+06 M⁻¹ s⁻¹ and the t1/2 is not below 231 min. The same molecule showed a koff in test [10] not above 5e-05 s⁻¹. This molecule also registered a koff in test [11] not above 5e-05 s⁻¹.

B5: H4H10452P2 (antibody, human IgG4, V domains shown)
VH: QVQLQESGPGLVKPSETLSLTCTVSGGSFSSHFWNWIRQSPGRGLEWIGYIYYSGGTNYNPSFKSRVTMSVDTSKNQFSLKLSSVTAADTAVFYCARARSGITFGGVLVPGSFDIWGQGTMVTVSS
VL: not shown
For B5, in test [8], the “Activin A-20 nM (RU)” value worked out at 55 RU, the Kd was not above 0.0107 nM, the kon was found to be 4.69e+06 M⁻¹ s⁻¹ and the t1/2 is not below 231 min. Also, in test [9], the “Activin A-20 nM (RU)” value turned out to be 43 RU, the dissociation constant (Kd) is not above 0.0063 nM, the association rate constant (kon) stood at 7.94e+06 M⁻¹ s⁻¹ and the t1/2 is not below 231 min. Besides, in [10], the koff is not above 5e-05 s⁻¹. In test [11], this molecule showed a koff not above 5e-05 s⁻¹.

B6: H4H10448P2 (antibody, human IgG4, V domains shown)
VH: B1 VH with S28T, Y52F, S54T, H58N, Y59H, E64K, V71I, N83T, L107V
VL: not shown
In the case of B6, in test [8], the “Activin A-20 nM (RU)” value is 64 RU, the Kd is not above 0.0105 nM, the kon stood at 4.76e+06 M⁻¹ s⁻¹ and the t1/2 was not below 231 min. In [9], the “Activin A-20 nM (RU)” value amounted to 49 RU, the Kd was not above 0.00636 nM, the kon is 7.86e+06 M⁻¹ s⁻¹ and the t1/2 is not below 231 min. The molecule also returned a koff in test [10] not above 5e-05 s⁻¹. The same molecule registered a koff in [11] not above 5e-05 s⁻¹.

The values are drawn from US20150037339A1 (Regeneron, published 2015).
